Laboratory results taken from patent US6187552A, “Method for identifying inhibitors of JAK2/cytokine receptor binding” (Pharmacia & Upjohn Company, priority 1998, dated 2001).

Biological target: JAK2 (Homo sapiens, UniProt O60674)
Assay: ELISA binding of JAK2 to immobilized βc peptides
Set-up: Y918N clone error corrected to Tyr
Method: βc peptides corresponding to the proposed JAK2 binding domain (Table 1) were serially diluted and bound 16 hours at room temperature to streptavidin coated 96-well plates (Boehringer-Mannheim, Indianapolis, Ind.) and blocked at 37° with 1% fetal bovine serum in PBS. JAK2 protein was serially diluted on the plate and allowed to bind for 1 hour at room temperature. Plates were washed between incubations with ELISA wash (PBS with 0.04% TWEEN 20). Detection was via anti-FLAG antibody (10 μg/ml, Kodak, New Haven, Conn.) followed by anti-mouse Ig conjugated to peroxidase (1:5000 dilution, Boehringer Mannheim) and 1 mg/ml 2,2'-azinobis(3-ethylbenzthiazolinesulfonic acid) (Sigma), 0.003% H2 O2, 28 mM citric acid, 44 mM Na2 HPO4.
The ELISA assay worked best when the biotinylated βc peptides were immobilized on a streptavidin 96-well plate and the JAK2 was allowed to bind. A dual titration of βc peptides vs. JAK2 was performed (FIG. 24). Peptide 1 [SEQ ID NO:11] (FIG. 24 A) and peptide 2 [SEQ ID NO:12] […] Because 0.4 μM peptide was calculated to saturate the number of biotin binding sites in each well, it was expected that the amount of JAK2 binding should saturate at this quantity of peptide. […] (FIGS. 24 C and D) but peptides 5 and 6 [SEQ ID NOS:15 and 16]

Sequence of JAK2 (O60674 3-1132): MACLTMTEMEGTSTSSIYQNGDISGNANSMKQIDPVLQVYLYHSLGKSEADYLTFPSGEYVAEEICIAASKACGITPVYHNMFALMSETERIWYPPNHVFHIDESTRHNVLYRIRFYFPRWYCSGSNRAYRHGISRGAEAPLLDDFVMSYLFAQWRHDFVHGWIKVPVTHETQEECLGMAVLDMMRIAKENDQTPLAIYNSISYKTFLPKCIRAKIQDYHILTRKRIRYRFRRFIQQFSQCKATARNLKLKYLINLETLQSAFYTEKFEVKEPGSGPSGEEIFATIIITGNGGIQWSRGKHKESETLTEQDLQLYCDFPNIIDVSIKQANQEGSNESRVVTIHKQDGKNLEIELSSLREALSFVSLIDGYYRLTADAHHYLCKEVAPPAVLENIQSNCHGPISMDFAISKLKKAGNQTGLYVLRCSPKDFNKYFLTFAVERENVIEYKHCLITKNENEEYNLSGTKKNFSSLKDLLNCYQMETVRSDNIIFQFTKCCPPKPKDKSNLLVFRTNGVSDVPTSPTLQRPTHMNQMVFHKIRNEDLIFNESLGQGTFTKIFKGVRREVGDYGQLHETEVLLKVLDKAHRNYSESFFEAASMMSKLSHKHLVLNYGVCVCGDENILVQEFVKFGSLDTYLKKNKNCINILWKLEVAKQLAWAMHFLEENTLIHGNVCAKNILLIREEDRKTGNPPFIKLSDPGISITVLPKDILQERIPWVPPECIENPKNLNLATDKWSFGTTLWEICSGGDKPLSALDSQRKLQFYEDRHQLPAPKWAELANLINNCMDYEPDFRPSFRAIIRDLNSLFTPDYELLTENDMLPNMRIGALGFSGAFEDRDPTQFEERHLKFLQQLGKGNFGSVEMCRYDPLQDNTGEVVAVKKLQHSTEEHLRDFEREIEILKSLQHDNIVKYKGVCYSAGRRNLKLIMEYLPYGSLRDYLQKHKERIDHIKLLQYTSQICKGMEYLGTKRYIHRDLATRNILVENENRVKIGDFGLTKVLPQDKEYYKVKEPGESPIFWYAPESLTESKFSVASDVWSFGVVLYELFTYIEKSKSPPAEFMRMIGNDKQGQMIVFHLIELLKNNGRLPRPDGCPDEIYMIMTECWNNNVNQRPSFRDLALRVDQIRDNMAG

Sequence: GIYGYRLRRKWEEKIPNPSKSHLFQNGSAELWP [peptide 4, βc peptide, N-terminal truncation]
- suitability for the ELISA: appear optimal
